Substitutions are numbered along the chain they refer to.

The labels stand for the following.
B1: anti-Siglec15 benchmark (ch5G12) (antibody, human IgG1, kappa, V domains shown)
VH: QVQLQQPGAELVKPGASVKMSCKASGYTFTSYWITWVIQRPGQGLEWIGDIYCGSDTMHYNEKFKNKATLTVDTSSSTAYMQLSSLTSEDSAVYYCARWWDYGSSYDYFDYWGQGTTLTVSS
VL: DIKMTQSPSSMYASLGERVTITCKASQDINSYLSWFQQKPGKSPKTLIYRANRLVDGVPSRFSGSGSGQDYSLTISSLEYEDMGIYYCLQYDEFPYTFGGGTKLEIKR
notes: ch5G12 (US 20190202912A1); also called BM; Siglec15-ch5G9
B2: A1E10G7H9 (antibody, V domains shown)
VH: QVQLQESGPGLVKPSGTLSLTCAVSGGSISSSNWWHWVRQPPGKGLEWIGEIYHSGNTNYKPSLKSRVTISVDKSKNQFSLKLSSVTAADTAVYYCARDEGNGWSNAFDIWGQGTMVTVSS
VL: ENVLTQSPGTLSLSPGERVTLSCRASQSVSSSYLAWYQQKPGQAPRFLIYGASGGATGIPDRFSGSGSGTDFTLTISRLEPEDFAVYYCQQYGSSPITFGQGTRLEIK
notes: Fully human antibody from transgenic mouse hybridoma
B3: A2A5C7E8 (antibody, V domains shown)
VH: EVQLVQSGAEVKKPGESLRISCKGSGYSFTTYWISWVRQMPGKGLEWMGLIDPSDSYTNYSPSFQGHVTISTDKSISTAYLQWSSLKASDTAMYYCARGGYYGSEEDYWGQGTLVTVSS
VL: EIVLTQSPGTLSLSPGERATLSCRASQSVSSSRLAWFQQKSGQAPRLLIFDASSRATGIPDRFSGSGSGTDFTLTISRLEPEDFAVYYCQQYGSSPRTFGQGTKVEFK
notes: Fully human antibody from transgenic mouse hybridoma; also called A2A5C7E8-1
B4: B2D7H7A3C1 (antibody, V domains shown)
VH: QVQLQQSGAELVRPGTSVQMSCKAAGYTFTNYWIGWVKQRPGHGLEWVGDIHPGINYTNNNEKFRGKATLTADTSSNTAYMQLRGLTSDDSAIYYCARVDYDYDGSYIMDYWGQGTSVTVSS
VL: QIVLSQSPALLSASPGEKVTMTCRASSSVSYMYWYQQKPGSSPKPWIYATSNLTSGVPARFSGSGSGTSYSLTISRVEAEDAATYFCQQWNSKPWTFGGGSKLEIR
notes: Mouse monoclonal antibody from hybridoma; also called mouse B2D7H7A3C1
B5: B2H2H1H7 (antibody, V domains shown)
VH: B4 VH with N77S
VL: B4 VL with V3I, K102R
notes: Mouse monoclonal antibody from hybridoma; also called mouse B2H2H1H7; B2H2H1A7
B6: B2G12H3E8 (antibody, V domains shown)
VH: B4 VH with Q5K, A25V, N77S
VL: B4 VL
notes: Mouse monoclonal antibody from hybridoma; also called mouse B2G12H3E8
B7: A2A5C7E8-2 (antibody, human IgG1, kappa, V domains shown)
VH: B3 VH with D55E
VL: EIVLTQSPGTLSLSPGERATLSCRASQSVSSSRLAWFQQKSGQAPRLLIFDASSRATGIPDRFSGSGSGTDFTLTISRLEPEDFAVYYCQQYGSSPRTFGQGTKVEFKR
notes: Variant of A2A5C7E8 modified in VH CDR2 (X1 = E)
B8: A2A5C7E8-3 (antibody, human IgG1, kappa, V domains shown)
VH: B3 VH with Q65K
VL: B7 VL
notes: Variant of A2A5C7E8 modified in VH CDR2 (X2 = K)

T2 sequence (chain, as listed by the source limits assumed): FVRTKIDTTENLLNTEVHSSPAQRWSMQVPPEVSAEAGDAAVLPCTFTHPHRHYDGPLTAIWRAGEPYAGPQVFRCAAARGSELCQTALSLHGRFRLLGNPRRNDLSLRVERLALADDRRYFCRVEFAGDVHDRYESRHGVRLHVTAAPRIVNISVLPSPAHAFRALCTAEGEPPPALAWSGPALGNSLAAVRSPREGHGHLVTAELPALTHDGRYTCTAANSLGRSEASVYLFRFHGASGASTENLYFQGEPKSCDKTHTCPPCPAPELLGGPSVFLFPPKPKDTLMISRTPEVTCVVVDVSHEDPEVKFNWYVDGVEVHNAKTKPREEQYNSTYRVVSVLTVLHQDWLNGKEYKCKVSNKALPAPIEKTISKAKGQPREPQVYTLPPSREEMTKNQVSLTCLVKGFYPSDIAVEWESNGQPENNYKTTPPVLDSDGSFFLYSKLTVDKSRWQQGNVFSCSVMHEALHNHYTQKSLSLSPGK

One assay deals with T1, cynomolgus monkey Siglec15-his protein (cynomolgus monkey).
T1 construct: In house made; also called Cynomolgus Siglec15-his; cynomolgus Siglec15
T1 chain: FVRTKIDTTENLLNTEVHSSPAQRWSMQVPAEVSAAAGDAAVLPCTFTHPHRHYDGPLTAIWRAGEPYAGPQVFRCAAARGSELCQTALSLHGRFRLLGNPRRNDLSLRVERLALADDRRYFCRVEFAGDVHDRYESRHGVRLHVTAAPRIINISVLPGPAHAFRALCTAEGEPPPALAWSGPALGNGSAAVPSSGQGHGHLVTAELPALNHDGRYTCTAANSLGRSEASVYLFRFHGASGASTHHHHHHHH
Description: indirect ELISA on coated cynomolgus Siglec15-his. How it is done:
The anti-Siglec15 antibodies' cross-reactions to cynomolgus or mouse Siglec15 proteins were measured. Briefly, 96-well micro plates were coated with 100 μl of 2 μg/ml cynomolgus Siglec15-his protein (in house made with SEQ ID NO: 21), or 2 μg/ml mouse Siglec15-his protein (in house made with SEQ ID NO: 22) in carbonate/bicarbonate buffer (pH 9.6) for 2 hours at 37° C. ELISA plates were washed once with wash buffer (PBS+0.05% v/v Tween-20, PBST) and then blocked with 200 μl/well blocking buffer (5% w/v non-fatty milk in PBST) overnight at 4° C. Plates were washed 4 times and incubated with 100 μl serially diluted anti-Siglec15 antibodies of the disclosure or controls (starting at 66.7 nM, 5-fold serial dilution in PBST with 2.5% w/v non-fatty milk) for 40 minutes at 37° C. ELISA plates were washed 4 times again and incubated with Peroxidase AffiniPure Goat Anti-Human IgG, F(ab)₂ fragment specific (1:5000 dilution in PBST buffer, Jackson Immunoresearch, Cat #109-035-097, 100 μl/well) for 40 minutes at 37° C. After a final wash, plates were incubated with 100 μl/well TMB (Innoreagents, Cat #TMB-S-002). The reaction was stopped 4 minutes later at room temperature with 50 μl 1M H₂SO₄, and the absorbance of each well was read on a microplate reader using dual wavelength mode with 450 nm for TMB and 630 nm as the reference wavelength, then the OD (450-630) values were plotted against antibody concentration. Data was analyzed using Graphpad Prism software and EC₅₀ values were reported.
Background: ELISA stands for enzyme-linked immunosorbent assay.
The EC50 is the concentration needed to bring the measured effect to its halfway point. Consider B1, for which it took 0.652 nM to reach a half-maximal effect (EC50).
On the same count and under the same terms, the same measure for B2: 0.509 nM; for B3: 0.521 nM.

Another assay addresses T2, human Siglec15-Fc protein (human).
T2 construct: In house made; also called recombinant human Siglec15 protein with human IgG1 Fc at the C-terminus
Description: competitive ELISA: coated human Siglec15-Fc, blocked ligand biotin-labeled human LRRC4C-Fc. How it is done:
Serially diluted anti-Siglec15 antibodies or the controls (starting at 66.67 nM with a 5-fold serial dilution) in PBST with 2.5% w/v non-fatty milk were added to the Siglec15-Fc bound plates, 100 μl per well, and incubated with the human Siglec15-Fc protein at 37° C. for 40 minutes. Plates were washed 4 times again using wash buffer, then added and incubated for 40 minutes at 37° C. with 100 μl/well 290 ng/ml biotin-labeled human LRRC4C-Fc protein (prepared in-house with SEQ ID NO: 23). Plates were washed again using wash buffer. Thereafter, the plates were added with 100 μl/well streptavidin conjugated HRP (1:5000 dilution in PBST buffer, Jackson Immunoresearch, Cat #016-030-084) and incubated for 40 minutes at 37° C. Plates were washed again using wash buffer. Finally, TMB was added and the reaction was stopped using 1M H₂SO₄, and the absorbance of each well was read on a microplate reader using dual wavelength mode with 450 nm for TMB and 630 nm as the reference wavelength, then the OD (450-630) values were plotted against antibody concentration. Data was analyzed using Graphpad Prism software and IC₅₀ values were reported.
The mouse anti-Siglec15 antibodies of the disclosure were also tested in ligand blocking ELISA and benchmark blocking ELISA following the protocols described above.
One may read the IC50 as the point on the concentration scale where inhibition reaches its midpoint. B1: the IC50 was 1.57 nM.
On the same count and under the same terms, with B4 the figure was 0.868 nM; with B5, 1.04 nM.
Same read-out and setting: the same measure for B6: 0.954 nM.

Another assay addresses T3, mouse Siglec15-his protein (mouse).
T3 construct: In house made
T3 chain: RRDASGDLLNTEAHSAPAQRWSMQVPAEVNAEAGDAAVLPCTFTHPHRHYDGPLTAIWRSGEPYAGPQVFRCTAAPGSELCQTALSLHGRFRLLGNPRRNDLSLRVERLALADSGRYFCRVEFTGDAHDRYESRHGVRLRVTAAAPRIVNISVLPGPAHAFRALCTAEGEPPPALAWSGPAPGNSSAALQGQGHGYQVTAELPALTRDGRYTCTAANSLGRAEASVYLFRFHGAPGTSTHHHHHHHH
Description: SPR Biacore T200, antibody captured by anti-human IgG, antigen as analyte, 1:1 fit. Here is the method: Briefly, goat anti-human IgG (GE healthcare, Cat #BR100839, Human Antibody Capture Kit) was covalently linked to a CM5 chip (carboxy methyl dextran coated chip, GE healthcare, Cat #BR-1005-30) via primary amines, using a standard amine coupling kit provided by Biacore (GE healthcare, Pittsburgh, Pa., USA). Un-reacted moieties on the biosensor surface were blocked with ethanolamine. Then, purified anti-Siglec15 antibodies of the disclosure at the concentration of 13.3 nM and an anti-Siglec15 benchmark (ch5G12, also referred to as BM, see U.S. Patent Publication No. 20190202912A1, amino acid sequences of the heavy chain and light chain set forth in SEQ ID NOs: 24 and 25, respectively) at 13.3 nM, were respectively flowed onto the chip at a flow rate of 10 μL/min. Then, serially diluted recombinant human Siglec15-his protein (in house made, amino acid sequence set forth in SEQ ID NO: 20) or cynomolgus monkey Siglec15-his protein (in house made, amino acid sequence set forth in SEQ ID NO: 21), 2-fold serial dilution in HBS-EP⁺ buffer starting at 80 nM, were respectively flown onto the chip at a flow rate of 30 μL/min. The antigen-antibody association kinetics was followed for 2 minutes and the dissociation kinetics was followed for 10 minutes. The association and dissociation curves were fit to a 1:1 Langmuir binding model using BIAcore evaluation software.
For the BIAcore test measuring the binding affinities of the modified A2A5C7E8 variants to mouse Siglec 15, mouse Siglec15-his protein (in house made with SEQ ID NO: 22) was used.
(In SPR one partner is held on a chip, and binding of the other changes the refractive index at the surface.)
For orientation: Kd means the constant that tells how readily two partners part at equilibrium. Usually koff stands for the first-order rate constant of dissociation. In general, kon refers to a measure of how fast the partners come together. On to B1, for which the Kd amounted to 0.17 nM, the koff was 0.000931 s⁻¹ and the kon amounted to 5.47e+06 M⁻¹ s⁻¹.
For B3, in that order: 0.0875 nM, 0.000187 s⁻¹ and 2.14e+06 M⁻¹ s⁻¹.
The matching figures for B7: 0.188 nM, 0.000495 s⁻¹ and 2.63e+06 M⁻¹ s⁻¹.
B8 had a Kd of 0.0737 nM, a koff of 0.000165 s⁻¹ and a kon of 2.24e+06 M⁻¹ s⁻¹.

The values above are taken from patent US20230106715A1 (BIOSION, published 2023).
